T1: HIS6-ATG8A (Arabidopsis thaliana, UniProt Q8LEM4 1-117)
T1 construct: ATG8A, Arabidopsis thaliana; source: E. coli Rosetta2(DE3)pLysS, purified (HisTrap, ion exchange, SEC)
T1 sequence (looked up): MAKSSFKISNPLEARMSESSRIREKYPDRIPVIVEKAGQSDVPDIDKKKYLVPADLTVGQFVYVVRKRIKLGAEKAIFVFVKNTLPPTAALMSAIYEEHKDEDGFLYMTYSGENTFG

B1: HIS6-AtC53 (natural protein)
chain: not shown
notes: C53, Arabidopsis thaliana; Monomeric by native MS; source: E. coli Rosetta2(DE3)pLysS, purified (HisTrap, ion exchange, SEC)
B2: GST-GABARAP (natural protein, human, UniProt O95166 1-117, looked up)
chain: MKFVYKEEHPFEKRRSEGEKIRKKYPDRVPVIVEKAPKARIGDLDKKKYLVPSDLTVGQFYFLIRKRIHLRAEDALFFFVNNVIPPTSATMGQLYQEHHEEDFFLYIAYSDESVYGL
notes: GABARAP, human ATG8 isoform; printed MW of GST-GABARAP 42458.87 Da; source: E. coli recombinant expression; bacterial lysate (pull-downs), recombinant protein (SPR); not shown: GST, N-terminal, kept
B3: At-sAIM peptide (peptide)
peptide: EPLDFDIDWDLEEEM
notes: peptide with a shuffled AIM (IDWD) in the frame of the AIM wt peptide
B4: GST-ATG8A (natural protein, Arabidopsis thaliana, UniProt Q8LEM4 1-117, looked up)
chain: T1 sequence (looked up)
notes: ATG8A, Arabidopsis thaliana; printed MW of GST-ATG8A 42366.85 Da; also called AtATG8; source: E. coli recombinant expression; bacterial lysate (pull-downs), recombinant protein (SPR, peptide array); not shown: GST, N-terminal, kept
B5: Hs-sAIM peptide (peptide)
peptide: EPLDFDIDWGLEEEM
notes: peptide with a shuffled AIM (IDWG) in the frame of the AIM wt peptide; also called Hs-sAIMC53
B6: AtC53-IDR (purified) (domain or fragment, Arabidopsis thaliana, UniProt Q9FG23 264-341, looked up)
chain: ANGTDAAADSIDWDITVETPEIDWDVSMVEEVDSGNDLGSYEIVNASDIPENSPFKVEESQGLEVDVSEISWDVSVET
notes: intrinsically disordered region of Arabidopsis C53; The expected mass (about 80 residues) is too small for 239-372, the limits of MBP-AtC53^IDR; source: E. coli Rosetta2(DE3)pLysS, purified

Common to all, as to conditions: both partners purified
Experiment [1] has as its target T1, HIS6-ATG8A. In words: native MS; proteins exchanged into ammonium acetate, nanoelectrospray, Synapt G2Si; C53 1-5 µM or IDR 2.5 µM with 5-20 µM ATG8A or GABARAP.
Another experiment concerns the target T2, HIS6-HsC53 (human, UniProt Q96JB5 1-506).
T2 construct: C53 (CDK5RAP3), human; Monomeric by native MS; source: E. coli Rosetta2(DE3)pLysS, purified (HisTrap, ion exchange, SEC)
In words: SPR; competition, apparent; GST-GABARAP or GST-ATG8A captured; increasing AIM wt peptide premixed with 10 µM HsC53 or AtC53; 25°C, 50 mM sodium phosphate pH 7.0, 100 mM NaCl, 0.05% Tween-20, 0.1% BSA. For orientation: Surface plasmon resonance follows binding to a sensor surface in real time, without labels.

For experiment [2], the target named is T1, HIS6-ATG8A. Nature of the experiment: ITC; 25°C, 50 mM sodium phosphate pH 7.0, 100 mM NaCl; cell 40 µM GABARAP or ATG8A, syringe 600 µM peptide or 250 µM IDR; one-set-of-sites model. (Isothermal titration calorimetry measures the heat released or taken up as one component is titrated into another.)
In the experiment “HIS6-AtC53” the target is B1. In words: SPR; competition, apparent; GST-GABARAP or GST-ATG8A captured; increasing AIM wt peptide premixed with 10 µM HsC53 or AtC53; 25°C, 50 mM sodium phosphate pH 7.0, 100 mM NaCl, 0.05% Tween-20, 0.1% BSA.
For another experiment, the target named is T3, HIS6-GABARAP (human, UniProt O95166 1-117).
T3 construct: GABARAP, human ATG8 isoform; source: E. coli Rosetta2(DE3)pLysS, purified (HisTrap, ion exchange, SEC)
In words: ITC; 25°C, 50 mM sodium phosphate pH 7.0, 100 mM NaCl; cell 40 µM GABARAP or ATG8A, syringe 600 µM peptide or 250 µM IDR; one-set-of-sites model.

Values joined by “and” are separate entries in the source; they are usually repeats but may differ in a detail not shown here. Equal entries are not always repeated.

Data on six molecules can be found in PMC7515635 (eLife, 2020).

T2 sequence (Q96JB5 whole entry): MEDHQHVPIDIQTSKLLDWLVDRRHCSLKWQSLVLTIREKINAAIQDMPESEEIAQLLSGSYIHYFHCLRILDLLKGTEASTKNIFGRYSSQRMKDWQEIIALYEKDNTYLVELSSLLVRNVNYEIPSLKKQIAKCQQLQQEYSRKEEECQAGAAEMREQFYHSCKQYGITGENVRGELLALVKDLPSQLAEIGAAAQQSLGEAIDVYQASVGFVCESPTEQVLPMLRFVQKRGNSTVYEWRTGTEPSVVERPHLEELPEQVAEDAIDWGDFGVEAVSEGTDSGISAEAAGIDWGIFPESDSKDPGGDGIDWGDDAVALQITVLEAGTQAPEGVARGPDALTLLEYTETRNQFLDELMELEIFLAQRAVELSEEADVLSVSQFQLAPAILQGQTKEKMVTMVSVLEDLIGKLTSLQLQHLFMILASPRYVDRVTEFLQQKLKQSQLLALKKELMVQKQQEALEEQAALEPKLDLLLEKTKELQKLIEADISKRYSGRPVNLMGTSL
Sequence of HIS6-AtC53 (Q9FG23 whole entry): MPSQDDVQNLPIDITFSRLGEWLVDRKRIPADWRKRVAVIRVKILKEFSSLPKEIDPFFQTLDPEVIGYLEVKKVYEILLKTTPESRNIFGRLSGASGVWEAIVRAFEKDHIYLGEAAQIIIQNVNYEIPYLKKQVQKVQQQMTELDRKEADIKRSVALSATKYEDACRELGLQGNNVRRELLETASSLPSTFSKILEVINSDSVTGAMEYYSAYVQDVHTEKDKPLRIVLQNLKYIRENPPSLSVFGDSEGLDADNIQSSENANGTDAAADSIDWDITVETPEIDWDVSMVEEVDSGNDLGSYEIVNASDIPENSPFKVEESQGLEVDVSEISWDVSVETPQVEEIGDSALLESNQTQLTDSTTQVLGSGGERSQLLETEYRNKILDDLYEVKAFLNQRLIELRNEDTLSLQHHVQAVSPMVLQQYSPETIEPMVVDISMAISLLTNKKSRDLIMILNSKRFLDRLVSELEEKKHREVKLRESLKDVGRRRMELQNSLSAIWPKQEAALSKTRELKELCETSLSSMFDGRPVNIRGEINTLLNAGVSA

Usually stoichiometry N stands for a count of units in the complex or per binding partner. Consider B1, for which, in the experiment with HIS6-ATG8A [1], the “stoichiometry N” value is 1 ATG8A per AtC53 and 2 ATG8A per AtC53.
B2: the binding result with HIS6-HsC53 is given as “binds”.
For B3, in the experiment with HIS6-ATG8A [2], the binding result was “binds”.
With B4, in the experiment with HIS6-AtC53, the binding result is recorded as “binds”.
B5: the binding result with HIS6-GABARAP is recorded as “binds”.
Turning to B6, in the experiment with HIS6-ATG8A [1], the “stoichiometry N” value was 1 ATG8A per AtC53-IDR and 2 ATG8A per AtC53-IDR and 3 ATG8A per AtC53-IDR.
